Experiment: soluble on expression in E. coli; label from the status in PepcDB or PDB records

Sequence | soluble on expression in E. coli
MEQYYGTGRRKEAVARVFLRPGNGKVTVNGQDFNEYFQGLVRAVAALEPLRAVDALGHFDAYITVRGGGKSGQIDAIKLGIARALVQYNPDYRAKLKPLGFLTRDARVVERKKYGKHKARRAPQYSKR | soluble
MSLTIDRIRALVSEDFNAVNNLIIDKIQSQVGLIQDLSQHIVESGGKRLRPLVVLLASNACGYKGKDHISLAAMVEFFHTATLLHDDVIDESTLRRGRQTANSIWGSKASVLVGDYLFTQSVNLMVEVGIKEILNLLANTSHQITCGEVKQLANRHNPALTLDDYFDVIRAKTALLFAAAACIGPILTNAPIELRNSLYNYGLHLGNAFQLIDDALDYCSDAATLGKNIGDDLADGKATLPLIHALQNGNATQQQQIRESLMKGSLSHLPDILIAIEQTEAIPFTKRIAAQEVDSALSALEILPDSVYKEALVDLAKFALERNYEGHHHHHH | soluble
AQFQYPFKEVYYLETSPRAHRVILYTKTDRLEFTASLEEVFKQEPRLLQCHRSFLINPANVVHLDKKEKLLFFPNGGSCLIARYKVREVSEAINKLH | not soluble
MADLLPPLTAAQVDAKTKVDEKVDYSNLPSPVPYEELHREALMSLKSDNFEGLRFDFTRALNQKFSLSHSVMMGPTEVPAQSPETTIKIPTAHYEFGANYYDPKLLLIGRVMTDGRLNARLKADLTDKLVVKANALITNEEHMSQAMFNFDYMGSDYRAQLQLGQSALIGATYIQSVTNHLSLGGEIFWAGVPRKSGIGYAARYETDKMVASGQVASTGAVVMNYVQKISDKVSLATDFMYNYFSRDVTASVGYDYMLRQARVRGKIDSNGVASALLEERLSMGLNFLLSAELDHKKKDYKFGFGLTVG | not soluble
LGSVKPATCEKPKFLEYKTCVGDLAVVIAKALDEFKEFCIVNAANEHMSHGGGVAKAIADFCGPDFVEYCADYVKKHGPQQKLVTPSFVKGIQCVNNVVGPRHGDSNLREKLVAAYKSVLVGGVVNYVVPVLSSGIFGVDFKISIDAMREAFKGCAIRVLLFSLSQEHIDYFDATCK | soluble
MHKVVIVGRPNVGKSSLFNRLLKKRSAVVADVPGVTRDLKEGVVETDRGRFLLVDTGGLWSGDKWEKKIQEKVDRALEDAEVVLFAVDGRAELTQADYEVAEYLRRKGKPVILVATKVDDPKHELYLGPLYGLGFGDPIPTSSEHARGLEELLEAIWERLPVRQIETEPEVAGIRLAIVGRPNAGKSSLLNAILGEERVIVSEEPGTTRDAIDVEFFFGGQRFVLVDTAGIRKRPENLVEELAIRRSLRAMDEADVVLLVVDPFQVGDRELKLANEALDRGKPVLLVITKWDLVDKEDAPKMRRLLREKLAHLDHLPRVFTSALTRQNLDRIFREAVRLHELNQTRVPTAELNRWVAVWTSRVQMPNFKGKPLKILYATQPEVAPPTFVFFVNHPEFVTRAFENYLKNRIGEDLGLREVPFRLVFRGRREE | soluble
MKASFKGKFDVDKSGSVASLTFNAGNAKLRATMTDASFVAGPSFNGLSLAVEKPGFFIIDYNVPKKDVRFQFMNTIRIAEKPLNLTYIHMRGDNRTIVDGSFVIDPANKLSANYMVGTKNCKLKYTYVHGGIATFEPCYDVAKNMWDFAISHKLYGGDNLKATYQTSSKMLGLEWSNNSKSTGSFKVCASMNLAEELKPPKLTAETTWNLEL | soluble
APADKPQVLASFTQTSASSQNAWLAANRNQSAWAAYEFDWSTDLCTQAPDNPFGFPFNTACARHDFGYRNYKAAGSFDANKSRIDSAFYEDMKRVCTGYTGEKNTACNSTAWTYYQAVKIFG | soluble
MQPLLEAQKKLLPDLLDVMQKRYQILHSISLMAPIGRRALAASLGMSERVLRSETEFLKGQNLLSADVSGMRLTEEGQALLHTLNDLMREALGLKELEAALQEQLGIPRVIVVAGDSDRSPWVKKEMGRACVACMKELLEPGDIVAVAGGTTMAAVAEMMTPDSKLRDVLFVPARGGLGEDVENQANTICAKMAEKAMGRYRLLHVPDQLSDEAYASLVEEPAVKEVLELIQSCRMVVHGIGEAVTMAKRRKTPPVEMEKIIARHAVAEAFGYYFNEYGDVVHKVKTVGIQLEHLPHVEHVIAVAGGASKAKAIRAYMKRAPHSLLVTDEGAAKAFVGE | not soluble
MGSDKIHHHHHHMKIGIVGLGRVGSSTAFALLMKGFAREMVLIDVDKKRAEGDALDLIHGTPFTRRANIYAGDYADLKGSDVVIVAAGVPQKPGETRLQLLGRNARVMKEIARNVSKYAPDSIVIVVTNPVDVLTYFFLKESGMDPRKVFGSGTVLDTARLRTLIAQHCGFSPRSVHVYVIGEHGDSEVPVWSGAMIGGIPLQNMCQICQKCDSKILENFAEKTKRAAYEIIERKGATHYAIALAVADIVESIFFDEKRVLTLSVYLEDYLGVKDLCISVPVTLGKHGVERILELNLNEEELEAFRKSASILKNAINEITAEENKHQNTSG | not soluble
MSEISVTQTLDTLGLRCPEPVMLVRKNIRHLNDGEILLIIADDPATTRDIPSFCQFMDHTLLQCEVEKPPFKYWVKRGK | not soluble
GHHDKRFKAFIAHDGIFNMEMQYLETEEKWFANWDMGGAYWEKQNPTAQRTFANSPHLFVEKWDTPILCIHGEKDYRILANQAMAAFDAAVMRGVPAELLIYPDENHWVLKPQNGVLWQRTFFEWLDQWLKPN | not soluble
MSLSIPFDDSRGPYVLAMDIGSTASRGGLYDASGCPIKGTKQRESHEFTTGEGVSTIDADQVVSEITSVINGILNAADHHNIKDQIAAVALDSFASSLILVDGEGNALTPCITYADSRSAQYVEQLRAEIDEEAYHGRTGVCLHTSYHPSRLLWLKTEFEEEFNKAKYVMTIGEYVYFKLAGITGMATSIAAWSGILDAHTGELDLTILEHIGVDPALFGEIRNPDEPATDAKVVDKKWKHLEEIPWFHAIPDGWPSNIGPGAVDSKTVAVAAATSGAMRVILPSVPEQIPSGLWCYRVSRDQCIVGGALNDVGRAVTWLERTIIKPENLDEVLIREPLEGTPAVLPFFSGERSIGWAASAQATITNIQEQTGPEHLWRGVFEALALSYQRVWEHMGKAGAAPERVIASGRVSTDHPEFLAMLSDALDTPVIPLEMKRATLRGTALIVLEQLEPGGTRATPPFGTTHQPRFAHHYSKARELFDALYLKLVEGHHHHHH | soluble
MHIDLRQLRHFIALHEHRSFVAAALAVNLSQSAFSRSIQALEHSAGCRLVDRAAKDLRPTKQGLIVLEHARRLVSGAHNLANEIALFNGLEAGELRFGAGPAPATWLVPRAVGRFNVRYPKARVSFQVEHWQALNRRLQAEEFEFFVADTRHFEADPQYRTSRLRPRRWHFCCREGHPLAARESVSAEELLSFPLATNISPPNIRKVLVDLSGRPDFRPAIECENGHSLLGVVLASDAIGISSGLGDLAPPGQGGLRPLRVRELPDDLDELHTRYGIVSRAGYSLSPLAEAMIDELKRVDDAT | not soluble
GIDPFTFENATSDAINQDMMLYIERIAKIIQKLPKRVHINVRGFTDDTPLVKTRFKSHYELAANRAYRVMKVLIQYGVNPNQLSFSSYGSTNPIAPNDSLENRMKNNRVEIFFSTDANDLSKIHSILDNEFNPHKQQE | soluble
GSHMDPLMQKIDISENPDKIYFIRREDGTVHRGQVLQSRTTENAAAPDEYYVHYVGLNRRLDGWVGRHRISDNADDLGGITVLPAPPLAPDQ | soluble
MAHHHHHHMYRLVKFLYVNLLASTDLKRKYARAGDWAIVTGATEGIGYAMAMELARRGFNVCVVARTRSKLDAVVAEIEKKGVQGKAVVFDFSTADAQAYKRLFAELELLEVAILVNNVGVNYPYANYFDEADVEEDMKMLKVNCEATLRMTRFIVPRLKAKRSGGIVFLSSISATVPSPLLSAYAGTKSLSLSFGEGLAYELQQFGVDVLTVTPSLVVSRMTQGVSSRKPKETLFMVNAAAMAHQTLNKLGIVTRTAGHINHALLNSCLRILPESLVANKILTMHQAIKRRAERSRTQ | not soluble
SMSNDKTGKSLEQENSERDVEIRDRNYFRKLSLFDDTVIAGAEMIGTSYDVFGKYCNVGSCMNSLFDERKINASEDNFKKVTILGKTLKVPYYIDCYSVGDLKYTNASGESIESYQSNISSKSRIKGNYLFFSASLKVDFDTDSLTDFENAFSRIQYTYDLYILKSSAEALKEFLKESVKTALDKADTEEDMNDLFNTWGSHFLSGVVMGGCAQYSSSTNKYTSNLTNSFDVVAAASFAGFIGLSARTGNSFMEDIKKFRSASNIKTHAIGGDLSRFDPFGGATSADQPSAEEIAAAKKAFEDWKASVPNAPELVNFADSNPLTGIWELCSDRTQKAKLKKHFETVWAPAESAKRRVHADYIDEIIIGINNTNTPPEGYIGLKSTKDENLNSKGNICLFMHKAKYDPNIDNKDCITELKFITVRDKSPEGDWVKIPQDIYISPNQYLYLCYLPAKYSAEKAIKDIQLLCSSCGSSMILPYGYNDVLDERGERANATEDDNVHYLIYSAGWK | soluble
MQTKEKLASLSYLAVKSLLYELNLTPKPGLVDCHNNGAHNDMDFYTFLDSILSLSPFFKKYIEVGWLYHNESPQYLFNQLRKLGIEAEAAMFSATERVNTHKGINFSFALLLGATGSYLAKHIELIQEKRRFMPQDSLTICHLAGEMSMHLIQNDLSHVETKRNLTYGEKLFLQYGLKGLRGEASQGYPSLTQKALPFFRNELLKKQDIQISQLKLLLYLMTFIEDSNIIHRGGIKSWKKVQQEAQTLLEKDLPPYQLKEQLNSYNQILTDRHLSPGGAADLLSLTLYFSFLEQLI | not soluble
MSGSTHTTERGTGRAAEAAPPATDRFACYVYGIVPEDVEVSPGTVGVGEPAGQVTLVRHGEIAALVSPVDVDRPLGRASDLVAHERLLDGAAAEVPVLPFRFGAVLTSPEAVVEELLAPHHDQFAAALRQLEGKAQHVLKARYAERPVLLEILRENAEARRLRDRIRDLPEDATRTERIRLGELITQAIEAKREADTQAVLDRFASCTVAANVRDPSHERDAAHVAFLVEHAKADEFAEAVEELSDEWADRVEVRVLGPMAPYDFVVAEG | not soluble
MPKTISVRVTTMDAELEFAIQPNTTGKQLFDQVVKTIGLREVWFFGLQYQDTKGFSTWLKLNKKVTAQDVRKESPLLFKFRAKFYPEDVSEELIQDITQRLFFLQVKEGILNDDIYCPPETAVLLASYAVQSKYGDFNKEVHKSGYLAGDKLLPQRVLEQHKLNKDQWEERIQVWHEEHRGMLREDAVLEYLKIAQDLEMYGVNYFSIKNKKGSELWLGVDALGLNIYEQNDRLTPKIGFPWSEIRNISFNDKKFVIKPIDKKAPDFVFYAPRLRINKRILALCMGNHELYMRRRKP | soluble
GMIRLLYLLVKPAGMSDETFRAECLRHYEMSHDVPGLHKYEVRLVAEQPTDTHVPFFDIGHVDAIGECWFKDDAAYATYMASDIRKAWFEHGKTFIGQLKPFRTAPVAGDEPAS | soluble
SPKRETKKIKPSQEVIKEGPFLVAIHLKGIYMSNYTNSPCAACKFLRRKCTSDCVFAPYFPPEEPTKFANVHRIFGASNVSKILHEVAPHQREDAVNSLAYEAEARLKDPVYGCVGAISVLQRQVLRLQRELEETNADLMRYAGCLGGETTSAYGGRRG | soluble
MGSDKIHHHHHHMDKLLFGISGIPNGSGNEKFTYETGIDYLKSIGLDAMELPFVRSVNITNKNREGILNKKHEKDFYLSAHGSYFINLNAEENEKQEASLKRIVSGADALKSVEGKSLIFHPGFYLKDSKEETFNTIKENLKKLPDIGVDYRLETTGKPTQFGSLEENVALASEVKTCKLCIDFCHLHARYNGLFKTIEDFDKVLSYVGEKLGEAALNDMHIHMSGINYGIKGEKNHLPFKESDFPYEKCIKSFVKFNIKGCIICESPLLEKDSLLLKSIYEAS | not soluble

— the DeepSol protein solubility set
